Measurements reported in patent US20170204184A1 (CB THERAPEUTICS, published 2017).
Residue numbers refer to the chain shown, from its start. In names and notes the source's numbering stands. Blank lines part the entries; values can stand above or below the binder they belong to.

Tests used:
[1] = target: T1, hPD-L1-mFc (human); experiment: ELISA, coated PD-L1-mFc
T1 construct: it may hold a signal peptide; also called human PD-L1-mFc; PD-L1-mFc (Crownbio)
Procedure: (§1) ELISA binding analyses were conducted based on human PD-L1-mFc (for chimeric and humanized antibody detection) and PD-L1-hFc protein (for hybridoma antibody detection). 96-well plates (Costar, Cat No: 9018) were coated with 100 μL of 2 μg/ml PD-L1-mFc (Crownbio) in coating buffer PBS (Hyclone, Cat No: SH30256.01B) overnight at 4° C. The wells were aspirated and non-specific binding sites were blocked by adding 200 μL of blocking buffer (PBS with 1% (w/v) of bovine serum albumin (BSA, Roche, Cat No:738328)) and incubating for 1 hour at 37° C. After the plates were washed three times with wash buffer (PBS with 0.05% (v/v) Tween20 (Sigma, Cat No:P1379)), 100 μL/well of 1:10 serial dilutions of hybridoma (FIG. 1), chimeric (FIG. 2), or humanized (FIG. 3) anti-PD-L1 antibodies in blocking buffer (starting from 20 μg/mL) were added and incubated at room temperature for 1 hour. The plates were washed and incubated with 100 μL/well of Goat anti-Mouse IgG (H+L) (Thermo, Cat No: 31432) in blocking buffer for 60 min. After the plates were washed, 100 μL/well of substrate solution TMB (eBioscience, Cat No: 00-4201-56) were added and the plates were incubated for 2 min at room temperature. 100 μL/well of stop solution (2N H₂SO₄) was added to stop the reaction. The colorimetric signals were developed and read at 450 nm using an Auto Plate SpectraMax Plus (Supplier: Moleculer Devices; Model: MNR0643; Software: SoftMax Pro v5.4). Data were analyzed using GraphPad Prism 5 and EC50 was calculated (FIGS. 1-3; Tables 5-7).

[2] = target: T2, biotinylated human PD-L1-mFc (human, biotinylated (sites not given)); experiment: competition ELISA: blocks PD-L1-mFc-biotin binding to coated PD-1-hFc
T2 construct: also called PDL-1-mFc-biotin
T2 sequence (chain, as listed by the source limits assumed): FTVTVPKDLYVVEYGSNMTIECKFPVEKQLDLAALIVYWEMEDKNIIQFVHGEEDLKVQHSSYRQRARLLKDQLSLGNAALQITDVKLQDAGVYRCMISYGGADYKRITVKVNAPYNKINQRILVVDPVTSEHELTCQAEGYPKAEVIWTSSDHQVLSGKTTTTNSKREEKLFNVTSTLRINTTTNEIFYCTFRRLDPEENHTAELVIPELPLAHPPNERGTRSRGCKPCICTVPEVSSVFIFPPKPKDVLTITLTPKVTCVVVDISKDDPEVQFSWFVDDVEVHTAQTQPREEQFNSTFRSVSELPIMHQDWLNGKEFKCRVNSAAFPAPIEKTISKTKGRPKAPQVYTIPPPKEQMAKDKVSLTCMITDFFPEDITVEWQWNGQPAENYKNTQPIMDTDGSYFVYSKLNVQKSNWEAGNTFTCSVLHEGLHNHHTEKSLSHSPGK
Procedure: The wells were aspirated and non-specific binding sites were blocked by adding 200 μL of blocking buffer (PBS with 1% (w/v) of bovine serum albumin (BSA, Roche, Cat No:738328)) and incubating for 1 hour at 37° C. After the plate was washed three times with wash buffer (PBS with 0.05% (v/v) Tween20 (Sigma, Cat No:P1379)), 100 μL/well of 1:3 serial dilutions of hybridoma (FIG. 4), chimeric (FIG. 5), or humanized (FIG. 6) anti-PD-L1 antibodies in blocking buffer (starting from 20 μg/mL) were added and incubated at 37° C. for 1 hour. […] After the plate was washed 3 times, secondary antibody (Avidin HRP eBioscience cat No.: E07418-1632, 1:500, 100 μl/well) was added and incubated at 37° C. for 0.5 hour. After the plate was washed, 100 μL/well of substrate solution TMB (eBioscience, Cat No: 00-4201-56) was added and the plate was incubated for 3min at room temperature. 100 μL/well of stop solution (2N H₂SO₄) was added to stop the reaction. The colorimetric signals were developed and read at 450 nm using an Auto Plate SpectraMax Plus (Supplier: Moleculer Devices; Model: MNR0643; Software: SoftMax Pro v5.4). Data were analyzed using GraphPad Prism 5 and IC50 was calculated (FIGS. 4-6; Tables 8-10).

[3] = target: T3, PD-L1 on 293T cells (UniProt Q9NZQ7 19-290); experiment: flow cytometry competition: blocks biotin-labeled PD-1 binding to PD-L1-293T cells
T3 construct: whole, on cells; also called PD-L1-293T; 293T-PD-L1 cells
T3 sequence (Q9NZQ7 19-290 limits assumed): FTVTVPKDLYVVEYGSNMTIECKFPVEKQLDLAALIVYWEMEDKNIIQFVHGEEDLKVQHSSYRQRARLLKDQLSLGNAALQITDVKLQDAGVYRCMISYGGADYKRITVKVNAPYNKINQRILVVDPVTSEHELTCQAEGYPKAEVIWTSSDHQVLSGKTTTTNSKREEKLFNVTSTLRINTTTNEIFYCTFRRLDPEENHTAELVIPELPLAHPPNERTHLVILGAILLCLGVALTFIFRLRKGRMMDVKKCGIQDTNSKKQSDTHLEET
Procedure: Briefly, PD-L1-293T cells were suspended in FACS buffer (PBS with 3% fetal calf serum). Various concentrations of the hybridoma (FIG. 10), chimeric (FIG. 11), or humanized (FIG. 12) anti-PD-L1 antibodies were added to the cell suspension and incubated at 4° C. for 60 minutes in 96 well plates. […] The cells were washed 3 times with PBS and incubated with mouse anti-biotin PE (Biolegend, cat# 409004). The cell-associated fluorescence was then detected by flow cytometry analysis using FACS array.

[4] = target: T3, PD-L1 on 293T cells; experiment: flow cytometry on PD-L1-293T cells
Procedure: Cell binding analyses of anti-PD-L1 antibodies were performed based on binding to a 293T cell line stably expressing PD-L1 (PD-L1-293T). 2×10⁵ 293T-PD-L1 cells were added into each well of 96-well culture plates and incubated with the indicated antibody (20 μg/ml with the dilution of 1:5) at 4° C. for 1 h. After the cells were washed three times with FACS buffer, the secondary antibody (PE Goat anti-mouse: 1:200; PE mouse anti-human: 1:10) was added to the cells at 100 μl/well, and incubated at 4° C. for 40 min. Cells were washed three times with FACS buffer and analyzed by FACS Array.

[5] = target: T4, Human PD-L1 (human, UniProt Q9NZQ7 19-238, limits assumed); experiment: SPR (Biacore 3000), antibody captured, PD-L1 as analyte, 1:1 fit
T4 construct: also called PD-L1 analyte (Biacore); hPD-L1
T4 sequence (Q9NZQ7 19-238 limits assumed): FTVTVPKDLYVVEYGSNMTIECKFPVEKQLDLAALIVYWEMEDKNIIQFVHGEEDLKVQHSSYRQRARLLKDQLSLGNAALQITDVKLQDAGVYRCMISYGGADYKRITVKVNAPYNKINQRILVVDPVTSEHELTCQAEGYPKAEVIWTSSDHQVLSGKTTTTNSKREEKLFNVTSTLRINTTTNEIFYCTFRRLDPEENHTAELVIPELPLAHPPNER
Procedure: The binding kinetics between PD-L1 and PD-L1 antibodies were measured by Biacore analysis, which was performed at 25° C. on a Biacore3000 instrument and recorded with a data collection rate of 1 Hz. Polyclonal rabbit anti-mouse IgG (GE, BR-1008-38) was diluted with 10 mM pH 5.0 sodium acetate and immobilized onto reference and experiment flow cells of a CM5 biosensor chip to around 15000 RU using an amine coupling kit (GE, BR10050). […] PD-L1 analyte series were prepared by diluting the stocks with running buffer to 100 nM followed by 2× serial dilution in the same buffer down to 0.78 nM. Analytes were injected in series over the reference and experiment flow cells for 3 minutes at a flow rate of 30 μL/minute. Running buffer (PBS with 0.05% P20) was allowed to flow over for 10 minutes at a flow rate of 30 μL/minute. At the end of each cycle, the biosensor surface was regenerated with 3 minutes injection of 10 mM pH1.7 Glycine-HCl buffer at a flow rate of 10 μL/minute. For each analyte sample injection (i.e. each cycle), binding responses obtained from the experimental biosensor surface were double referenced by subtracting simultaneously recorded responses from the reference surface followed by additional subtraction of responses from a single referenced running buffer sample. The association and dissociation rate constants (ka and kd) were determined simultaneously by fitting double-referenced sensorgrams of the entire titration series to Langmuir model (1:1) using Biaevaluation 4.0 software. The dissociation constant, KD, was calculated from the determined rate constants by the relation KD=kd/ka.

[6] = target: T5, hPD-L1-hFc (human); experiment: ELISA, coated PD-L1-hFc
T5 construct: it may hold a signal peptide ('open reading frame of the extracellular domain'); also called PD-L1-hFc protein; human PD-L1 extracellular domain fused with human Fc tag
T5 sequence (chain, as listed by the source limits assumed): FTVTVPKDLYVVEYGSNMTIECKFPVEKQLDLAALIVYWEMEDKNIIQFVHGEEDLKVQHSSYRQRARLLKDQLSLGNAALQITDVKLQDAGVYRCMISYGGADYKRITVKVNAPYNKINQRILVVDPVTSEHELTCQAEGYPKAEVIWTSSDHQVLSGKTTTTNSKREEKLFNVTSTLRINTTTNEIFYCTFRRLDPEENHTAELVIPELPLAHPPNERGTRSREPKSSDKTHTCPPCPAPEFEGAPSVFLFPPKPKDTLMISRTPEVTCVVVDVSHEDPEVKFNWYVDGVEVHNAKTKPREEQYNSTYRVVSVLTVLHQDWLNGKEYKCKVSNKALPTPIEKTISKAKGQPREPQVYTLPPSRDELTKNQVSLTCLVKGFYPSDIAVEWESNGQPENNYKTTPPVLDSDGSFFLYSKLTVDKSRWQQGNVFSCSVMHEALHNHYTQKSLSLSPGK
Procedure: as §1

B1: ch8H4-hIgG4 (antibody, V domains shown)
VH: EVKLVESGGGLVKPGGSLKLSCAASGFTFRSYGMSWARQIPEKRLEWVASISSGGTTYYLGSVQGRFTISRDNARNILYLQMSSLRSEDTAMYYCARGYDAGFAYWGQGTLVSVSS
VL: DIVLTQSPASLAVSLGQRATISCRASQSVSTSSYSYMHWYQQKPGQPPKLLIKYASNLESGVPARFSGSGSGTDFTLNIHPVEEEDTATYYCQNSWEIPYTFGGGTKLEIKR
notes: Mouse-human chimeric IgG4 (F234A/L235A), human kappa; also called Chimeric 8H4-IgG4 (F234A/L235A); chimeric 8H4-hIgG4
- EC50 [1]: 0.134 mg/L
- IC50 [2]: 0.848 mg/L
- IC50 [3]: 0.042 mg/L

B6: m7B4 (antibody, V domains shown)
VH: EVKLFESGGGLVQPGGSLKLSCVASGFDFSTYWMHWVRQAPGQGLEWIGQINPDSTTINYAPSLKDRFIISRDNAKNTLFLQMSKVRSEDTALYYCAKPGDYGYDFDCWGQGTTLTVSS
VL: DVLMTQTPLYLPVSLGDQASISCRSSQIIVHSNANTYLEWFLQKPGQSPKLLIYKVSNRFSGVPDRFSGSGSGTDFTLKISRVEAEDLGVYYCFQGSHVPYTFGGGTKLEIK
notes: Murine hybridoma IgG (printed 'mIgG'); also called 7B4-mIgG; 7B4 murine
- EC50 [4]: 0.0474 mg/L
- Kd [5]: 6.01 nM
- EC50 [6]: 0.0314 mg/L
- IC50 [2]: 0.892 mg/L
- IC50 [3]: 0.0381 mg/L

More lines, now with the values ahead:

- EC50 [4]: 0.0478 mg/L
- Kd [5]: 3.59 nM
- EC50 [6]: 0.0487 mg/L
- IC50 [2]: 0.655 mg/L
- IC50 [3]: 0.0211 mg/L
B2: m15F1 (antibody, V domains shown)
VH: EEKLVESGGGLVKPGGSLKLSCAASGFSFSSYGMSWVRQTPEKRLEWVASISSGGSIYYPDSVKGRFTISRDNARNILYLQMSSLRSEDTAMYYCARGYDAGFAFWGQGTLVTASA
VL: DIVLTQSPASLAVSLGQRATISCRASQSVSTSSYSYVHWYQQKPGQPPKLLIKYASNLESGVPARFSGSGSGTDFTLNIHPVEEEDTATYYCQHSWEIPYTFGGGTKLEIK
notes: Murine hybridoma IgG (printed 'mIgG'); also called 15F1-mIgG; 15F1 murine

- EC50 [4]: 0.0453 mg/L
- Kd [5]: 1.35 nM
- EC50 [6]: 0.0651 mg/L
- IC50 [2]: 0.872 mg/L
- IC50 [3]: 0.0289 mg/L
B3: m13C5 (antibody, V domains shown)
VH: B2 VH with E2V, S28I, S30R, I57T, Y94D, A101S, F105Y, A114V, A116E
VL: B1 VL with Y34S, Y36F, N94H
notes: Murine hybridoma IgG (printed 'mIgG'); also called 13C5-mIgG; 13C5 murine

- Kd [5]: 2.28 nM
B4: ch13C5 (antibody)
VH: B2 VH with E2V, S28I, S30R, I57T, Y94D, A101S, F105Y, A114V, A116E
light: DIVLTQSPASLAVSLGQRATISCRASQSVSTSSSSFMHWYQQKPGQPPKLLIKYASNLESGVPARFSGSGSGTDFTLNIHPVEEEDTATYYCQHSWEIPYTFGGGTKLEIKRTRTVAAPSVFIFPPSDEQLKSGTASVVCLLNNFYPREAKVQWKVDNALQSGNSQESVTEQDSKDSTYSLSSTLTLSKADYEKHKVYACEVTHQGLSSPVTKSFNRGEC

- EC50 [4]: 0.0337 mg/L
- Kd [5]: 4.78 nM
- EC50 [6]: 0.0312 mg/L
- IC50 [2]: 0.613 mg/L
- IC50 [3]: 0.0491 mg/L
B5: m5G9 (antibody, V domains shown)
VH: B1 VH with A37V, I40T, L60P, G61D, Q64K, T68I, R97K, A101S, S113I, S116A
VL: B2 VL with A9P, Y34S, V37M
notes: Murine hybridoma IgG (printed 'mIgG'); also called 5G9-mIgG; 5G9 murine
